The target of assay [1] is T1, WW domain containing E3 ubiquitin protein ligase 1 (WWP1) (human, UniProt Q9H0M0 1-922, limits assumed).
T1 construct: also called endogenous WWP1; WW domain-containing protein-1
Nature of the assay: anti-PTEN immunoprecipitation from DU145 cells, western blot (FIG. 2B). On the technique in general: Immunoblotting shows a protein as a band on a membrane.

Assay [2] has as its target T2, Flag-WWP1 ΔWW domain (deletion 341-547) (Homo sapiens (Human), UniProt Q9H0M0 1-922).
T2 construct: The two kept ranges are counted on the 922-residue WWP1 entry; not shown: Flag tag
T2 sequence: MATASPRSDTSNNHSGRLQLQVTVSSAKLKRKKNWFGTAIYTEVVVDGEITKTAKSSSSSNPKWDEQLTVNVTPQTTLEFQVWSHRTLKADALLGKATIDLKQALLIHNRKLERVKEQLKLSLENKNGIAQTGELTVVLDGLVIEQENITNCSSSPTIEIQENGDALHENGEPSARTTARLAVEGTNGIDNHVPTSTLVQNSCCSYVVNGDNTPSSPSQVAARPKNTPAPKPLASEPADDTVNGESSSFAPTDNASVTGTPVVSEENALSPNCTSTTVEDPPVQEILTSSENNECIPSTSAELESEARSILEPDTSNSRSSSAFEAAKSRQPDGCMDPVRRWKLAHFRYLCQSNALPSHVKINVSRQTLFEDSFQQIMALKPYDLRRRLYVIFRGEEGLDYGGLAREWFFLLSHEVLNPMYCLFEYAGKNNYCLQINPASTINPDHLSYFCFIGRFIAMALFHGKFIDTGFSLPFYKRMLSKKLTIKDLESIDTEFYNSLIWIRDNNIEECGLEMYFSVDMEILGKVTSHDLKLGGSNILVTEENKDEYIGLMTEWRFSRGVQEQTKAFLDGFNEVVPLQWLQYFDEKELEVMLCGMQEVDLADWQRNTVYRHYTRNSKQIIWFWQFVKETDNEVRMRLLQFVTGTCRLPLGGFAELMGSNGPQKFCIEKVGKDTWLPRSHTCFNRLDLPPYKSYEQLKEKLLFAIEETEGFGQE
The assay is described as follows: immunoprecipitation and western blot, 293 cells (FIG. 4E). The method, then:
Lysates of 293 cells transfected with indicated constructs were analysed by immunoprecipitation and/or western blot with indicated antibodies.
Western Blotting and Immunoprecipitation. For western blotting, cells were lysed in RIPA buffer (Boston BioProducts) supplemented with protease (Roche) and phosphatase (Roche) inhibitor. Proteins were separated on NuPAGE 4-12% Bis-Tris gradient gels (Invitrogen), transferred to polyvinylidine difluoride membranes (Immobilon P, Millipore) and the blots were probed with the indicated antibodies. For immunoprecipitation, PC3, 293T and MEF cells were transfected with the indicated expression vectors by using LIPOFECTAMIN 2000 (Life Technologies). 24 hours after transfection, cells were lysed in RIPA buffer with protease (Roche) and phosphatase (Roche) inhibitor. 500 μg of total lysates were pre-cleared for 30 minutes at 4° C., and then immunoprecipitated with anti-Myc (Cell Signaling Technology 9B11, 1:500), or anti-PTEN (Cell Signaling Technology 9559, 1:500) antibody overnight at 4° C. The Protein-A or Protein-G sepharose beads (GE Healthcare) were then added and incubated for another 2 hours. The immunoprecipitates were washed with RIPA buffer three times. […]

B1: Phosphatase And Tensin Homolog Deleted On Chromosome Ten (PTEN) (enzyme)
chain: not shown
notes: also called endogenous PTEN; PTEN WT
Consider B1, for which the binding result was “binds” in assay [1] and “no binding” in assay [2].

Values taken from US20190374506A1 (BETH ISREAL DEACONESS MEDICAL CENTER, published 2019).
